The target of data set [1] is recombinant human BAD-GST fusion polypeptide (human) (UniProt Q92934). As to the kind of experiment: AUC; sedimentation velocity; single proteins or 1:1 molar mixtures incubated on ice 30 min; BAD buffer pH 8.5; 20°C.
Data set [2] shares this target. Briefly: ITC; Bcl-xL (100 μM) titrated in 4 μL injections into BAD-GST (10–18 μM) in the cell; 25°C; BAD buffer (0.1 M Tris, 0.1 M KCl, 0.5 M arginine, 2.5 mM CHAPS, 5 mM TCEP, 10% glycerol, pH 8.5).
Data set [3] addresses recombinant human pancreatic glucokinase (human) (UniProt P35557).
Data set [4] has the same target. This is another data set of the same source.
Data set [5] concerns the target recombinant human Bcl-xL, Δ45–84, Δ210–233 variant (human) (UniProt Q07817). Briefly: fluorescence polarisation; competition: 200 nM f-BH3, 50 nM Bcl-xL, BAD forms varied 0–50 μM; room temperature. Background: Polarisation of emitted light reports the rotation of a fluorescent probe.
The target of data set [6] is T1, Bcl-xL (Homo sapiens, UniProt Q07817, DEL45-84).
T1 construct: made in house
As to the kind of experiment: Analytical ultracentrifugation sedimentation velocity of 1:1 mixture BAD-GST and Bcl-xL. The format is binding. The conditions noted are these: 1:1 mixture of BAD-GST and Bcl-xL, 20°C, 50,000 x g, BAD buffer pH 8.5. How it is done: Sedimentation velocity experiments were conducted with an Optima XLI Ultracentrifuge (Beckman Coulter) using a four-hole rotor with three 420 μL samples in standard double-sector Epon centerpieces equipped with sapphire windows. Absorbance and interference data were collected simultaneously. Size-exclusion purified proteins were concentrated to OD280 nm = 0.3–1.0 prior to centrifugation. For complex formation, proteins were mixed in a 1:1 molar ratio in BAD buffer (0.1 M Tris, 0.1 M KCl, 0.5 M arginine, 2.5 mM CHAPS, 5 mM TCEP, 10% glycerol, pH 8.5) and incubated on ice 30 min prior to the start of the experiment. Experiments were carried out at 20°C and 50,000 x g. Data were analyzed with Ultrascan III software using a minimum of 70 scans per sample for analysis. Van Holde-Weischet analysis was performed to obtain S20,W values.

The nature of data set [7]: Circular dichroism spectroscopy (secondary structure). The conditions noted are these: far UV CD, 25°C, pH 7.8, 3–15 μM, CDPro. The format is physicochemical. How it is done:
Proteins were dialyzed overnight into potassium phosphate buffer (50 mM, pH 7.8) containing KCl (50 mM), glycerol (5% v/v), and TCEP (4 mM). CD spectra were recorded on an AVIV 202 CD spectrometer at 25°C with protein concentrations ranging from 3–15 μM. Spectra were recorded from 200–260 nm in 10 mm pathlength cuvettes using a 1 nm step resolution and 3 s integration time. Three scans were recorded per sample, averaged, and baseline subtracted with appropriate buffer controls. CD signals were converted to molar ellipticity and deconvoluted using CDPro Software.

Data set [8] relates to BAD-knockout hepatocytes. The conditions noted are these: ref [9]; cited from earlier work. The source says:
Phosphorylation of BAD modulates its participation in apoptosis and glucose metabolism. High glucose concentrations stimulate BAD phosphorylation at three serine residues, resulting in reduced pro-apoptotic activity. In particular, phosphorylation at Ser155, within the BH3 domain of murine BAD, prevents interaction with Bcl-xL, thereby quenching BAD’s apoptotic activity. […] Moreover, i ...

Data set [9] concerns the target T1, Bcl-xL. Briefly: Fluorescence polarization competition with f-BH3 for binding to Bcl-xL. The conditions noted are these: ITC and fluorescence polarization assays. How it is done: Exon 1 of human bcl-xl lacking the C-terminal residues 189–233 was obtained from Stanley Korsmeyer (Addgene plasmid 8755) and site-directed mutagenesis was performed to create the Δ45–84, Δ210–233 variant. Bcl-xL was expressed and purified using a modified procedure described previously. Briefly, Bcl-xL was purified by nickel affinity chromatography and dialyzed against potassium phosphate buffer (20 mM, pH 7.4) containing NaCl (50 mM), EDTA (1 mM), and DTT (10 mM). Protein was applied to a Superdex 200 10/30 HR size-exclusion column, at a flow rate of 0.02 mL/min, to remove aggregate and oligomers prior to binding assays.
A fluorescence polarization assay developed by Zhang, et al. was utilized to measure interactions between BAD and its binding partners. Two 21-residue FITC-labeled peptides containing the BH3 domain of BAD were synthesized and purified to >95% by Peptide2.0 (f-BH3 = NLWAAQRYGRELRRMSDK(FITC)FVD; f-pBH3 = NLWAAQRYGRELRRM(p)SDK(FITC) FVD). Polarization was measured at room temperature with an excitation wavelength of 485 nm and an emission wavelength of 530 nm using a SpectraMax M5 microplate reader (Molecular Devices). Experiments to measure binding constants of the fluorescent peptides to Bcl-xL or GCK were performed in black 96-well plates. Each well contained 15 nM peptide, 60 μL BAD buffer (0.1 M Tris, 0.1 M KCl, 0.5 M arginine, 2.5 mM CHAPS, 5 mM TCEP, 10% glycerol, pH 8.5) and variable concentrations of Bcl-xL (0–2.25 μM) or GCK (0–400 μM) in assay buffer (20 mM phosphate buffer, pH 7.4, 1 mM EDTA, 50 mM NaCl, 10 mM DTT) in a final volume of 120 μL. High GCK concentrations were chosen in an effort to detect a signal indicating a binding event. Assays containing GCK also contained 250 mM glucose. […] Plates were incubated at room temperature in the dark for 15 min prior to polarization measurements.

Data set [10] addresses T2, human pancreatic GCK (Homo sapiens, UniProt P35557).
T2 construct: hexahistidine (N); made in house; host or cells: glucokinase auxotroph BM5340(DE3)
T2 sequence (P35557 1-465): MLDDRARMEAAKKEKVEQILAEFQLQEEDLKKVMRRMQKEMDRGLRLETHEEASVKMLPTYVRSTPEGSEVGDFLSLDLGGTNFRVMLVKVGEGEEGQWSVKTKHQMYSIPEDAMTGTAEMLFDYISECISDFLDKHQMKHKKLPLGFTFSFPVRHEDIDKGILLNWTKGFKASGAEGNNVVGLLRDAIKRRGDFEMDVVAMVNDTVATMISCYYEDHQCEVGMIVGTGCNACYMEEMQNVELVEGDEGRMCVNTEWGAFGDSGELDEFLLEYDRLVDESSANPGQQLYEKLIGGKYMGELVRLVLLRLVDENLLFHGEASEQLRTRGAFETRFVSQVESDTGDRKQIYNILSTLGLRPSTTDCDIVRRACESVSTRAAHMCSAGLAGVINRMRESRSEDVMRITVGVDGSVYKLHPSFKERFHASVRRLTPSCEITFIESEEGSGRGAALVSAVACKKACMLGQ
As to the kind of experiment: Isothermal titration calorimetry with GCK. The data set is classed as binding. The conditions noted are these: GCK (100 μM) titrated into S118D BAD-GST (10–15 μM), 13 μL injections, BAD buffer pH 8.5, 25°C. Here is the method:
Recombinant human pancreatic GCK containing an N-terminal hexahistidine tag was produced in the glucokinase auxotroph BM5340(DE3) and purified using a previously described procedure. TEV protease was expressed as a GST-fusion protein from a pGEX plasmid encoding the S219V variant, provided by David Waugh (Addgene plasmid 8827). Expression was induced with IPTG (1 mM) for 4 h at 30°C. Cell pellets were resuspended in Tris buffer (50 mM, pH 8.0) containing NaCl (100 mM), glycerol (10% v/v), benzamidine (1 mM) and dithiothreitol (10 mM) and lysed via French Press. Polyethyleneimine (0.1%) was added to the lysate and protein was purified on a glutathione-affinity column (GSTrap, GE Sciences). TEV protease was flash frozen and stored at -80°C for up to 1 month.
Isothermal titration calorimetry was performed at 25°C using a MicroCal VP-ITC (GE Healthcare) instrument. Bcl-xL (100 μM) in BAD buffer (0.1 M Tris, 0.1 M KCl, 0.5 M arginine, 2.5 mM CHAPS, 5 mM TCEP, 10% glycerol, pH 8.5) was titrated into the calorimeter cell containing size-exclusion chromatography purified BAD-GST (10–18 μM) in 4 μL injections. A 21-residue phosphorylated peptide containing the BH3 domain of BAD was synthesized and purified to >95% by Peptide2.0 (pBH3 = NLWAAQRYGRELRRM(p)SDKFVD). The peptide (300 μM) in potassium phosphate buffer (25 mM) containing KCl (25 mM), TCEP (4 mM) and DMSO (5%) with and without glucose (200 mM) was titrated into the cell containing GCK (10 μM) previously dialyzed against the same buffer. GCK (100 μM) in BAD buffer was titrated into the cell containing S118D BAD-GST (10–15 μM) in 13 μL injections. Data were analyzed using Origin software.

Data set [11] has as its target T3, GCK (Homo sapiens, UniProt P35557).
T3 construct: hexahistidine (N); made in house; host or cells: glucokinase auxotroph BM5340(DE3)
T3 sequence (P35557 1-465): T2 sequence (P35557 1-465)
As to the kind of experiment: GCK activity, microplate G6PDH-linked assay as described by Szlyk et al. (37°C). The format is biochemical. The conditions noted are these: S118D BADGST 5 μM, or pBH3 5 μM; GCK 7.5 nM, 96 well plate; S2 Fig. Here is the method:
Steady state kinetics were also performed as described by Szlyk, et al.[13]. Briefly, G6PDH-linked assays were performed in clear 96-well plates at 37°C with a SpectraMax M5 microplate reader (Molecular Devices) recording absorbance at 340 nm every 30 s. Reaction mixtures contained GCK (7.5 nM), HEPES (100 mM, pH 7.4), KCl (150 mM), MgCl2(6 mM), DTT (1 mM), NAD (1 mM), BSA (0.05%), G6PDH (2.5 U), glucose (0.5–100 mM), and ATP (5 mM) in the presence or absence of BAD-GST S118D variant (5 μM) or phosphorylated BAD BH3 peptide (5 μM) in a final volume of 100 μL.
GCK (7.5 nM) was assayed in the presence of A. S118D BADGST (5 μM) or B. pBH3 (5 μM) in a 96 well plate using a microplate reader. Buffer conditions were as follows: Ref [13]: 100 mM Hepes, pH 7.4; 150 mM KCl; 1 mM NAD+; 0.05% BSA; 6 mM MgCl2; 1 mM DTT; 2.5 U G6PDH; 5 mM ATP. Optimal GCK conditions: 100 mM Hepes, pH 7.4; 150 mM KCl; 1 mM NADP+; 6 mM MgCl2; 10 mM DTT; 1.5 U G6PDH; 5 mM ATP. (EPS) Click here for additional data file.

The term Kd denotes a measure of binding affinity in units of concentration. What is called IC50 is the concentration at which inhibition is half-maximal.

As to “recombinant human Bcl-xL, Δ45–84, Δ210–233 variant (from UniProt Q07817-1 1-209) (domain or fragment)”, the stoichiometry N (Bcl-xL per BAD-GST dimer) in data set [1] was found to be 2. The Kd in [2] came to 7 nM.
Regarding “BAD-GST phosphorylated in vitro with PKAc (from UniProt Q92934 1-168) (natural protein)”, the increase in GCK activity over unmodified BAD-GST at 1.0 mM glucose in [3] is 5%. For the same molecule, in data set [4], the increase in GCK activity at glucose below the K0.5 value with phosphorylated BAD (> 2 μM) was determined as 15%. Moreover, in data set [5], the IC50 was 1600 nM.

B1: Bcl-xL: recombinant human Bcl-xL Δ45–84, Δ210–233 variant (protein)
chain: MSQSNRELVVDFLSYKLSQKGYSWSQFSDVEENRTEAPEGTESEAVKQALREAGDEFELRYRRAFSDLTSQLHITPGTAYQSFEQVVNELFRDGVNWGRIVAFFSFGGALCVESVDKEMQVLVSRIAAWMATYLNDHLEPWIQENGGWDTFVELYGNNAAAESRKGQER
modifications: left off: His tag (from the nickel affinity chromatography), end not stated, state not stated
notes: recombinant human Bcl-xL Δ45–84, Δ210–233 variant
As for B1, the Sedimentation coefficient in data set [6] is given as 1.3. For the same molecule, in data set [7], the Random coil content result is “roughly 30%”, the α-helical content stood at 43% and the β-sheet content is given as 14%.

B2: S155D BAD variant: phosphomimic murine BAD variant, ref 9 (protein, UniProt Q61337 1-204, looked up, variant S155D)
Bcl2-associated agonist of …: MGTPKQPSLAPAHALGLRKSDPGIRSLGSDAGGRRWRPAAQSMFQIPEFEPSEQEDASATDRGLGPSLTEDQPGPYLAPGLLGSNIHQQGRAATNSHHGGAGAMETRSRHSSYPAGTEEDEGMEEELSPFRGRSRSAPPNLWAAQRYGRELRRMDDEFEGSFKGLPRPKSAGTATQMRQSAGWTRIIQSWWDRNLGKGGSTPSQ
As to B2, in data set [8], the “Effect on GCK activity in hepatocytes” value was “stimulates GCK activity in hepatocytes” and the “Restoration of normal glycolytic metabolism in BAD-knockout hepatocytes” value is listed as “normal glycolytic metabolism can be restored”.

B3: S118D variant: S118D phosphomimic variant of BAD-GST (protein)
chain: MFQIPEFEPSEQEDSSSAERGLGPSPAGDGPSGSGKHHRQAPGLLWDASHQQEQPTSSSHHGGAGAVEIRSRHSSYPAGTEDDEGMGEEPSPFRGRSRSAPPNLWAAQRYGRELRRMDDEFVDSFKKGLPRPKSAGTATQMRQSSSWTRVFQSWWDRNLGRGSSAPSQ
modifications: left off: His6, N-terminal, state not stated | GST, C-terminal, kept
In the case of B3, the “Ability to interact with Bcl-xL (in words)” value in [9] is “significantly impaired in their ability to interact with Bcl-xL”. Besides, the “Binding to GCK by ITC” value in [10] is reported as “no detectable binding event”. For the same molecule, the “Effect on GCK kinetics under Szlyk et al. buffer conditions” value in data set [11] was “did not increase BAD’s effects on GCK kinetics”.

Values taken from article PMC5300155, “Biochemical and biophysical investigations of the interaction between human glucokinase and pro-apoptotic BAD” (PLoS ONE, 2017).
